Tested on: MS2 coat protein
Test: apparent KD of MS2 coat protein; designed switch direction (-1 OFF switch, 1 ON switch): -1; higher = weaker reporter binding
Outline: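 On Illumina chips, designed RNA switches with common flanks were made by stalled E. coli RNA polymerase. Titrations with SNAP-549-labelled MS2 coat protein, doubling from 0.7 or 1.5 nM to 3 µM, were done with no input, with 200 uM small-molecule ligand, or with an oligonucleotide input. Apparent KD is the median per design over clusters, from curve fits of normalised cluster fluorescence.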

[1] = Eterna round: R95, input ligand: microRNA oligo, concentration not stated
[2] = input ligand: microRNA oligo, concentration not stated
[3] = Eterna round: R95, input ligand: FMN 200 uM
[4] = Eterna round: R95, input ligand: none

| Sequence | apparent KD of MS2 coat protein [1] | apparent KD of MS2 coat protein (input ligand: FMN 200 uM) | apparent KD of MS2 coat protein (input ligand: none) | other results |
| --- | --- | --- | --- | --- |
| CGUGGACAUGAGGAUCACCCAUGUGAGGAUAUCGGCUGGUACGUGUUGGCUGGCAUCUCGAGAAGGCACAUAGU [Exclusion 1 V62] (puzzle: Exclusion 1) | 40.8 nM |  |  |  |
| AAACAGGGAGGAUAUACAUAGAUCCUCUAACCUAAUUGGUCACAUGAGGAUCACCCAUGUAGAAGGCCCUUAGG [Enquanes] (puzzle: Exclusion 2) | 13.6 nM |  |  |  |
| CACCUGAAGAGAGGAUAUGAUACAUGAGGAUCACCCAUGUAAUAAAUGAGAAUUUCGAAUGUAAUUCAGAAGGCUCGAUAAGGC [Ostricism 100 - Jieux - Exclusion NG 2] (Eterna round: R96, puzzle: Exclusion NG 2) |  | 121 nM | 55.3 nM | apparent KD of MS2 coat protein [2]: 45.6 nM |
| ACAUGAGGAUCACCCAUGUCCGUCUGGUCUGUCUCGGCUGUCGAGGAUAUAGCUCGGUAUCCGCGCUAGAAGGCGGGAGUCGGU [Aenatbe mod 93] (Eterna round: R96, puzzle: Exclusion NG 3) |  | 73.6 nM | 88.5 nM | apparent KD of MS2 coat protein [2]: 66.7 nM |
| AAUCGACAUGAGGAUCACCCAUGUUAGGAUAUGCGGAAUCGGUCAAUCAAUCGAUCAAGCAGAAGGGACGGGUU [Candy Rainbow] (puzzle: Exclusion 1) | 27.4 nM |  |  | apparent KD of MS2 coat protein [3]: 29.1 nM; apparent KD of MS2 coat protein [4]: 34.2 nM |
| GCAUGCUAUGUCAGGAUAUACCUGUGGAUACAUAGGUAGAAGGGACAUGAGGAUCACCCAUGUCCUAAUCAUGC [Fiskers BMX 4 - 24] (Eterna round: R96, puzzle: Brourd's mod of Exclusion 4) |  | 11.6 nM | 13.4 nM | apparent KD of MS2 coat protein [2]: 10 nM |
| GGUGAGCUAGGAUAUGCUUUGGGAAAGCAUUCCUUCGAUAAACUUGAGGAUCACCCAAGUAGAAGGAGCUUGCC [salish99_ex2_r4_019] (Eterna round: R97, puzzle: Exclusion 2) |  | 18.7 nM | 11.9 nM |  |
| GAGGAGGUAGGAUAUACGAUAAUAUAGGGUAGAUAUAUAACACAUGAGGAUCACCCAUGUAGAAGGACCAGGAG [Mat - Exclusion 2 - Mod of my Tesla design - D64] (puzzle: Exclusion 2) | 36.7 nM |  |  |  |
| AAAGACCAAGUGAGGAUAUUAUGGACAAUGGAACAUGAGAAGGCACAUGAGGAUCACCCAUGUGAAUAGGGACG [Eternabot (Original) Solution 22] (Eterna round: R97, puzzle: Brourd's mod of Exclusion 4) |  | 33.5 nM | 19.4 nM |  |
| UUGAAGUAAGGAUAUACAUGAGGAUCACCCAUGUAAAGGAAAGUAAUGGGAGUAGGAAGUAGAAGGUACGAGGA [JR_Exclu3_Sub062] (puzzle: Exclusion 3) | 66.6 nM |  |  | apparent KD of MS2 coat protein [3]: 49 nM; apparent KD of MS2 coat protein [4]: 134 nM |
| GCAAAAUAUCAGGAUAUGACUAGCUGCGGCUAGUCAGAAGGGAUGACAUGAGGAUCACCCAUGUGAUCUCGUGU [JR_Ex6_Sub028] (Eterna round: R97, puzzle: Exclusion 6) |  | 487 nM | 177 nM |  |
| UACAAGCUGCUCUAAUAGAACAUGAGGAUCACCCAUGUUGCUAAACAUGAAAGAAUUGGCUCCGCAUGGAUUGCUCG [Eternabot (L2) Solution 9] (Eterna round: R97, puzzle: Sensor, turn-off variant 1) |  | 31.9 nM | 33.6 nM |  |
| UUUUAACAUGAGGAUCACCCAUGUGAGGAUAUCGUUUUUUAUAUUAAUAUUAAUAAAACGAGAAGGCACAUUUU [JMF 10] (puzzle: Exclusion 1) | 121 nM |  |  |  |
| CUGCUCCGUGUAGGAUAUGCAUACUCCCAUUAUGCAGAAGGACAUGAGGAUCACCCAUGUAUGUUAUUAUCAUGUGUUGCGUGC [Design 12] (Eterna round: R96, puzzle: Exclusion NG 1) |  |  |  | apparent KD of MS2 coat protein [2]: 30 nM |
| AGUCGUAGACAGGAUAUGCGGCUAAUAAAUAAAGCAGAAGGGUCUACUUGAGGAUCACCCAAGUGGGCGGUUAA [jl-ex6-4.19 ViennaUCT mod] (Eterna round: R97, puzzle: Exclusion 6) |  | 104 nM | 20.8 nM |  |
| AAUUAAGCAAGCAGAUCCCACAUGAGGAUCACCCAUGUGCUCGUCUUAUAAGGUACUGUGACAAAAGUCACGGUACC [Mat - Sensor, turn-off var - Eli Mod - D73] (Eterna round: R97, puzzle: Sensor, turn-off variant 1) |  | 108 nM | 117 nM |  |
| GCCGAAAGUGUGAGGAUAUACCUAUGGAUACAUAGGUAGAAGGCACAUGAGGAUCACCCAUGUGUCCAAACGGC [Eli bmx4 4.23] (Eterna round: R97, puzzle: Brourd's mod of Exclusion 4) |  | 54 nM | 21.7 nM |  |

| Sequence | apparent KD of MS2 coat protein [1] | apparent KD of MS2 coat protein (input ligand: FMN 200 uM) | apparent KD of MS2 coat protein (input ligand: none) | other results |
| --- | --- | --- | --- | --- |
| GGCAUGUAAGGAUAUGUGAAGGGAAGGAGAGGGAGAGGGAAGCAGAAGGUACAUGAGGAUCACCCAUGUAAGGG [AK-MS2ROC-r4-exclusion4-5.1] (Eterna round: R97, puzzle: Exclusion 4) |  | 203 nM | 108 nM |  |
| AAUAACAGAGGAUAUACUAUUUUAUGUAUUUAUUAUUUUGAACAUGAGGAUCACCCAUGUAGAAGGCUGAGUAA [JMF 35] (puzzle: Exclusion 2) | 25.3 nM |  |  |  |
| AAAAUGUAAGGAUAUAGCCGGAACCCAGGGUUUGGACCCGGCUAGAAGGUACAUGAGGAUCACCCAUGUAAGAA [Excls4-VII] (puzzle: Exclusion 4) | 17.4 nM |  |  |  |
| GGGUGACAUGAGGAUCACCCAUGUCAGGAUAUGCUUCGGCUUCGGAAAUGAAGUUGAAGUAGAAGGGACUGCCC [-30.1, -29.1 kcal, A 27% sequence 3 bis] (Eterna round: R97, puzzle: Exclusion 1) |  | 84.4 nM | 42.2 nM |  |
| CUUUCGUGAGGAUAUCAGUAGUAAAAUAAUAAAAUUACUACUGAGAAGGCACAUGAGGAUCACCCAUGUUCCUC [salish99_ex3_r3_099] (puzzle: Exclusion 4) | 24.9 nM |  |  |  |
| AGUCGGUCAGGAUAUGCAAACGUGGACAUGAGGAUCACCCAUGUAACGUGGGCCUGGUUUGUAGAAGGGACGAGCA [EX5 #86] (Eterna round: R97, puzzle: Exclusion 5) |  | 35.1 nM | 34.5 nM |  |
| AUUAUAUAGGAAGGAUAUAGAAUAUUAUUUUAACAUGAGGAUCACCCAUGUAACCUUAUGUGUAGCUAGAAGGUCCAUUUGUUA [Title] (Eterna round: R96, puzzle: Exclusion NG 2) |  |  |  | apparent KD of MS2 coat protein [2]: 221 nM |
| GUCGCUAGAGGAUAUACAAUGGUAUAUGAUCCUAGUGACAUACAUGAGGAUCACCCAUGUAGAAGGCUAGUAUU [Exclusion 2 - 8] (puzzle: Exclusion 2) | 23.7 nM |  |  |  |
| CUAUUGGCAGGAUAUGCUUUUUUAGACAUGAGGAUCACCCAUGUGAUGAAUAUUGGGUUUGCAGAAGGGCCUGAAU [JR_E5_Sub039] (puzzle: Exclusion 5) | 64.2 nM |  |  |  |
| GGAGGACGAGCAGGAUAUUUUUACAUGAGGAUCACCCAUGUGUAAUCAGGGUAAUCCUCCACCGAAAAGAAGGGUUCGGAAGAA [Mat - Exclusion NG 2 - Mod of JL - D84] (Eterna round: R96, puzzle: Exclusion NG 2) |  | 18.1 nM | 70.6 nM | apparent KD of MS2 coat protein [2]: 9.17 nM |
| CUUUAGUGAGGAUAUCAGUGGUAAUACAAUAGUAUUACUACUGAGAAGGCACAUGAGGAUCACCCAUGUUCCUC [Mat - Exclusion 4 - Mod of Omei - D84] (puzzle: Exclusion 4) | 26.4 nM |  |  |  |
| GUGUGCUGAGGAUAUACAGAGGAAGAUAAGAUAAGAUAAUCACAUGAGGAUCACCCAUGUAGAAGGCAGAGUGU [Excluse me!! 16 - Jieux - Exclusion 2] (puzzle: Exclusion 2) | 27 nM |  |  |  |
| UUGUUACGAUUAGGAUAUUAUAGAUUGAAUAGUAUGAUUUACAUGAGGAUCACCCAUGUUACAUUUAAGAAGGAAUCGAAUUAU [JR_ExcNG2_Sub089] (Eterna round: R96, puzzle: Exclusion NG 2) |  |  |  | apparent KD of MS2 coat protein [2]: 16.1 nM |
| AGCUGUGGCCGAGGAUAUACACAUGAGGAUCACCCAUGUAGGCGCGGAUACGCGCUAAAAUAAGUGUAGAAGGCGGUCUCAGCA [Eli eng2 - 056] (Eterna round: R96, puzzle: Exclusion NG 2) |  | 20.1 nM | 18.1 nM | apparent KD of MS2 coat protein [2]: 17.4 nM |
| AGCUAGAUAGGAUAUGCCCGGGAUAACAUGAGGAUCACCCAUGUGGCCGAAUCAAAUCCAGCAGAAGGGUUUGGGA [Mod of ViennaUCT 12 - Jieux - Exclusion 5] (Eterna round: R97, puzzle: Exclusion 5) |  | 30.8 nM | 38.7 nM |  |
| UCUUAUUGAGGAUAUACAGAUUAUUACAUGAGGAUCACCCAUGUUCUUCAAUGUAUAUAUGUAGAAGGCAGAGGAA [Mat - Exclusion 5 - JL Mod - D11] (Eterna round: R97, puzzle: Exclusion 5) |  | 112 nM | 67.4 nM |  |
